The assay concerns the target T1, full-length p63 (GST-fusion) (human, UniProt Q9H3D4 1-680).
T1 sequence (looked up): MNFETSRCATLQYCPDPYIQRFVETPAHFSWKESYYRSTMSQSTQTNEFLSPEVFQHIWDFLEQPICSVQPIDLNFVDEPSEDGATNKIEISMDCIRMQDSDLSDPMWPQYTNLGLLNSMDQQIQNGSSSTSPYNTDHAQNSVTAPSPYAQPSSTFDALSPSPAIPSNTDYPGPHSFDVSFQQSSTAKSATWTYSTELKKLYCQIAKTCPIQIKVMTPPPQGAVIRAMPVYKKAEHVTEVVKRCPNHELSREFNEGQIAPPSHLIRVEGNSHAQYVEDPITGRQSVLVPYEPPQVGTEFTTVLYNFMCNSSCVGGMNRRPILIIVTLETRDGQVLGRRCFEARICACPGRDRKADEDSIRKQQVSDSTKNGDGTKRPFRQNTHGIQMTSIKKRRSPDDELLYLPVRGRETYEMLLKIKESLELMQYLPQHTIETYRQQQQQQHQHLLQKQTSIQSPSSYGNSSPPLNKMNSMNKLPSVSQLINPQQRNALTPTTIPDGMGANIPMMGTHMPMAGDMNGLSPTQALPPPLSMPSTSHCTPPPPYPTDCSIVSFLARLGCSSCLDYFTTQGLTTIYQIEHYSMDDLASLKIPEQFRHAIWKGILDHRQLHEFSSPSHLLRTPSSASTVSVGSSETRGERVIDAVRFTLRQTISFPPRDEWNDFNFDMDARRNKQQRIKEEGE
As to the kind of experiment: atomic force spectroscopy.

Experimental findings from article PMC3986302 (International Journal of Nanomedicine, 2014) are described below.

Take LSTAADMQGVVTDGMASGLDKDYLKPDD [p28]: the binding result was “binds”.
